The values below come from article PMC4769319, “Cohesin Releases DNA through Asymmetric ATPase-Driven Ring Opening” (Molecular Cell, 2016).

Substitutions are numbered along the chain they refer to. Names and notes keep the numbering of the source.

B1: full-length HIS6-Smc1 (wild-type) (natural protein, S. cerevisiae, UniProt P32908 1-1225, looked up)
chain: MGRLVGLELSNFKSYRGVTKVGFGESNFTSIIGPNGSGKSNMMDAISFVLGVRSNHLRSNILKDLIYRGVLNDENSDDYDNEGAASSNPQSAYVKAFYQKGNKLVELMRIISRNGDTSYKIDGKTVSYKDYSIFLENENILIKAKNFLVFQGDVEQIAAQSPVELSRMFEEVSGSIQYKKEYEELKEKIEKLSKSATESIKNRRRIHGELKTYKEGINKNEEYRKQLDKKNELQKFQALWQLYHLEQQKEELTDKLSALNSEISSLKGKINNEMKSLQRSKSSFVKESAVISKQKSKLDYIFKDKEKLVSDLRLIKVPQQAAGKRISHIEKRIESLQKDLQRQKTYVERFETQLKVVTRSKEAFEEEIKQSARNYDKFKLNENDLKTYNCLHEKYLTEGGSILEEKIAVLNNDKREIQEELERFNKRADISKRRITEELSITGEKLDTQLNDLRVSLNEKNALHTERLHELKKLQSDIESANNQEYDLNFKLRETLVKIDDLSANQRETMKERKLRENIAMLKRFFPGVKGLVHDLCHPKKEKYGLAVSTILGKNFDSVIVENLTVAQECIAFLKKQRAGTASFIPLDTIETELPTLSLPDSQDYILSINAIDYEPEYEKAMQYVCGDSIICNTLNIAKDLKWKKGIRGKLVTIEGALIHKAGLMTGGISGDANNRWDKEEYQSLMSLKDKLLIQIDELSNGQRSNSIRAREVENSVSLLNSDIANLRTQVTQQKRSLDENRLEIKYHNDLIEKEIQPKITELKKKLDDLENTKDNLVKEKEALQNNIFKEFTSKIGFTIKEYENHSGELMRQQSKELQQLQKQILTVENKLQFETDRLSTTQRRYEKAQKDLENAQVEMKSLEEQEYAIEMKIGSIESKLEEHKNHLDELQKKFVTKQSELNSSEDILEDMNSNLQVLKRERDGIKEDIEKFDLERVTALKNCKISNINIPISSETTIDDLPISSTDNEAITISNSIDINYKGLPKKYKENNTDSARKELEQKIHEVEEILNELQPNARALERYDEAEGRFEVINNETEQLKAEEKKILNQFLKIKKKRKELFEKTFDYVSDHLDAIYRELTKNPNSNVELAGGNASLTIEDEDEPFNAGIKYHATPPLKRFKDMEYLSGGEKTVAALALLFAINSYQPSPFFVLDEVDAALDITNVQRIAAYIRRHRNPDLQFIVISLKNTMFEKSDALVGVYRQQQENSSKIITLDLSNYAE
notes: Smc1, S. cerevisiae, full length; Always co-expressed and co-purified with StrepII-Scc1-C; vector pFastBac NKI-LIC; details in Supplemental Experimental Procedures; not shown: His6, N-terminal, kept
B2: full-length HIS6-Smc1 L1129V (natural protein, S. cerevisiae, UniProt P32908 1-1225, looked up)
chain: B1 chain with L1129V
notes: Smc1, S. cerevisiae, full length, Signature motif mutant; Co-purified with StrepII-Scc1-C; also called Signature motif mutant L1129V; not shown: His6, N-terminal, kept
B3: full-length HIS6-Smc1 D1164E (natural protein, S. cerevisiae, UniProt P32908 1-1225, looked up)
chain: B1 chain with D1164E
notes: Smc1, S. cerevisiae, full length, D-loop mutant; Co-purified with StrepII-Scc1-C; also called D-loop mutant D1164E; not shown: His6, N-terminal, kept
B4: full-length HIS6-Smc1 K39I (natural protein, S. cerevisiae, UniProt P32908 1-1225, looked up)
chain: B1 chain with K39I
notes: Smc1, S. cerevisiae, full length, Walker A mutant; Co-purified with StrepII-Scc1-C; also called Walker A mutant Smc1 K39I; not shown: His6, N-terminal, kept

The test addresses T1, full-length StrepII-Smc3 (wild-type) (S. cerevisiae, UniProt P47037 1-1230).
T1 construct: Smc3, S. cerevisiae, full length; source: Sf9 insect cells, expressed alone, purified (Strep-II tag purification, size-exclusion chromatography)
T1 sequence (looked up): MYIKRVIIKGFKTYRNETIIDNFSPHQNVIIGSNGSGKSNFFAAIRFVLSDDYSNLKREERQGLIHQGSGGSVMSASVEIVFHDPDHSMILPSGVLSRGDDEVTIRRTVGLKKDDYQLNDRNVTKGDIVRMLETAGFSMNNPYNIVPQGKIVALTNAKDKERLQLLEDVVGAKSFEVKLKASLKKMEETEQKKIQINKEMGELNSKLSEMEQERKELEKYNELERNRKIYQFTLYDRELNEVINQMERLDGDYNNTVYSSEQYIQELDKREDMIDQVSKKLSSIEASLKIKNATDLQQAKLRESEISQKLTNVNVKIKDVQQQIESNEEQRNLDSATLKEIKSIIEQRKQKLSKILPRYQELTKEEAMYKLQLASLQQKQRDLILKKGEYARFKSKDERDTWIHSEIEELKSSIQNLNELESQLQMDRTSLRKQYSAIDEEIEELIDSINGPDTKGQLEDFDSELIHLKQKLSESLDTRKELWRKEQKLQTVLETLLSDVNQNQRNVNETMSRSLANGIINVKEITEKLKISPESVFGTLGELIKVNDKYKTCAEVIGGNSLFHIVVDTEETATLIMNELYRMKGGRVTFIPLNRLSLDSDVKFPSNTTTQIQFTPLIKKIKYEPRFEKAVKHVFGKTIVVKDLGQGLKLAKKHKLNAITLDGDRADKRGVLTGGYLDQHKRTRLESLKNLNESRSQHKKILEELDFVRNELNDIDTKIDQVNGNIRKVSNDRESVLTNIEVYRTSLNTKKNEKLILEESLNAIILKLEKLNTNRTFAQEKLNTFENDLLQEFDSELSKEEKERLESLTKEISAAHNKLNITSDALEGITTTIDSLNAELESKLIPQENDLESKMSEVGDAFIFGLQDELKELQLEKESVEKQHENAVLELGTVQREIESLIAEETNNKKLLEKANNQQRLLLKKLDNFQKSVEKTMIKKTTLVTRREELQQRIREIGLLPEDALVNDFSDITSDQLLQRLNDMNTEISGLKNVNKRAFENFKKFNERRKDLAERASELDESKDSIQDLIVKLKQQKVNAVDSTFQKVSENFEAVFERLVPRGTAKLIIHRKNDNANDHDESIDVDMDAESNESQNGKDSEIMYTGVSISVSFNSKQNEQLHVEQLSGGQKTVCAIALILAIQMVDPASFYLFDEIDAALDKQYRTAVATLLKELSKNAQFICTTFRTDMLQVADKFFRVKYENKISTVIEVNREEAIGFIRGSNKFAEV
Description: scanning force microscopy; full-length Smc1 co-incubated with full-length Smc3 in the presence of ATP, seeded on mica; V shapes and ring shapes counted as heterodimers. Particulars: both partners purified.
On to B1, for which the binding result is listed as “binds”.
Then B2, with “binds”; and B3, with “binds”.
Then B4, with “binds”.
